Substrate in this data set: CCn1c(=NN=c2sc3cc(S(=O)(=O)O)ccc3n2CC)sc2cc(S(=O)(=O)O)ccc21
Briefly: purified protein. The data set is classed as biochemical, Armoracia rusticana. The settings on record: H2O2 co-substrate, 50 mM phosphate citrate pH 5, 30 °C, 0.05-7 mM ABTS, enzyme from cultivation F5 (glass, with Co and boric acid).

B1: horseradish peroxidase isoenzyme A2A (HRP) (Armoracia rusticana) (protein)
chain: QLNATFYSGTCPNASAIVRSTIQQAFQSDTRIGASLIRLHFHDCFVDGCDASILLDDSGSIQSEKNAGPNANSARGFNVVDNIKTALENTCPGVVSCSDILALASEASVSLTGGPSWTVLLGRRDSLTANLAGANSAIPSPFEGLSNITSKFSAVGLNTNDLVALSGAHTFGRARCGVFNNRLFNFSGTNGPDPTLNSTLLSSLQQLCPQNGSASTITNLDLSTPDAFDNNYFANLQSNNGLLQSDQELFSTLGSATIAVVTSFASNQTLFFQAFAQSMINMGNISPLTGSNGEIRLDCKKVDGS
notes: secreted from K. phaffii BSYBG11 MutS, codon-optimized gene; glycosylated, negative AIEX flow-through; monomeric, 2 calcium, heme
With B1, the Km amounted to 2110 ± 350 µM.

The record behind these values is publication PMC7763993, “Depletion of Boric Acid and Cobalt from Cultivation Media: Impact on Recombinant Protein Production with Komagataella phaffii” (Bioengineering, 2020).
